19 molecules from patent US20160333095A1 (published 2016) can be followed below.

Where a chain is given by its changes, count along the chain named.

First the molecules themselves.
T1: cynomolgus CD3 (UniProt Q95LI5 22-198)
T1 chain: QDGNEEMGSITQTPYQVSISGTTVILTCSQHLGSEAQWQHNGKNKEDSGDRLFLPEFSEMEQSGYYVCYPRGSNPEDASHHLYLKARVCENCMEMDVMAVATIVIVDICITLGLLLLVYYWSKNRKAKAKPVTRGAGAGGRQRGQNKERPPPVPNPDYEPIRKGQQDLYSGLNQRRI

B1: bsIgG1 huCD3-H3L1×HER2-LFLEDA (bispecific antibody, V domains shown)
VH 1: EVKLVESGGGLVKPGRSLRLSCAASGFTFNTYAMNWVRQAPGKGLEWVARIRSKYNNYATYYADSVKDRFTISRDDSKSILYLQMNSLKTEDTAMYYCVRHGNFGNSYVSWFAYWGQGTLVTVSS
VL 1: not shown
VH 2: QVQLVQSGAEVKKPGASVKVSCKASGYTFTNYGISWVRQAPGQGLEWMGWLSAYSGNTIYAQKLQGRVTMTTDTSTTTAYMELRSLRSDDTAVYYCARDRIVVRPDYFDYWGQGTLVTVSS
VL 2: EIVLTQSPATLSLSPGERATLSCRASQSVSSYLAWYQQKPGQAPRLLIYDASNRATGIPARFSGSGSGTDFTLTISSLEPEDFAVYYCQQRSNWPRTFGQGTKVEIK
B2: IgG1-huCD3-H3L1-LFLEDA (antibody, V domains shown)
VH: B1 VH 1
VL: not shown
B3: bsIgG1 CD3×HER2 (bispecific antibody, V domains shown)
VH 1: B1 VH 1 with V5L, K13Q, G15K, R16G, R19K, K78Q, S87N, S125A
VL 1: QAVVTQESALTTSPGETVTLTCRSSTGAVTTSNYANWVQEKPDHLFTGLIGGTNKRAPGVPARFSGSLIGDKAALTITGAQTEDEAIYFCALWYSNLWVFGGGTKLTVL
VH 2: B1 VH 2
VL 2: B1 VL 2
B4: IgG1-CD3-LFLEDA (antibody, V domains shown)
VH: B1 VH 1 with V5L, K13Q, G15K, R16G, R19K, K78Q, S87N, S125A
VL: B3 VL 1
B5: bsIgG1-huCD3-H3L3×HER2-LFLEDA (bispecific antibody, V domains shown)
VH 1: B1 VH 1
VL 1: QAVVTQEPSFSVSPGGTVTLTCRSSTGAVTTSNYANWVQQTPGQAFRGLIGGTNKRAPGVPARFSGSILGNKAALTITGAQADDESDYYCALWYSNLWVFGGGTKLTVL
VH 2: B1 VH 2
VL 2: B1 VL 2
B6: bsIgG1-huCD3-H4L1×HER2-LFLEDA (bispecific antibody, V domains shown)
VH 1: B1 VH 1 with L120M
VL 1: not shown
VH 2: B1 VH 2
VL 2: B1 VL 2
B7: bsIgG1-huCD3-H1L1×HER2-LFLEDA (bispecific antibody, V domains shown)
VH 1: B1 VH 1 with K13Q, R16G, I80S, S87N
VL 1: not shown
VH 2: B1 VH 2
VL 2: B1 VL 2
B8: bsIgG1-huCD3-H1L3×HER2-LFLEDA (bispecific antibody, V domains shown)
VH 1: B1 VH 1 with K13Q, R16G, I80S, S87N
VL 1: B5 VL 1
VH 2: B1 VH 2
VL 2: B1 VL 2
B9: IgG1-huCD3-H1L3-LFLEDA (antibody, V domains shown)
VH: B1 VH 1 with K13Q, R16G, I80S, S87N
VL: B5 VL 1
B10: IgG1-huCD3-H4L3-LFLEDA (antibody, V domains shown)
VH: B1 VH 1 with L120M
VL: B5 VL 1
B11: IgG1-huCD3-H4L1-LFLEDA (antibody, V domains shown)
VH: B1 VH 1 with L120M
VL: not shown
B12: IgG1-huCD3-H1L1-LFLEDA (antibody, V domains shown)
VH: B1 VH 1 with K13Q, R16G, I80S, S87N
VL: not shown
B13: IgG1-huCD3-H3L3-LFLEDA (antibody, V domains shown)
VH: B1 VH 1
VL: B5 VL 1
B14: IgG1-huCD3-H3L3 (antibody, V domains shown)
VH: B1 VH 1
VL: B5 VL 1
B15: IgG1-huCD3-H1L1 (antibody, V domains shown)
VH: B1 VH 1 with K13Q, R16G, I80S, S87N
VL: not shown
B16: IgG1-huCD3-H1L2 (antibody, V domains shown)
VH: B1 VH 1 with K13Q, R16G, I80S, S87N
VL: B5 VL 1 with D87I, Y89F
B17: IgG1-huCD3-H4L1 (antibody, V domains shown)
VH: B1 VH 1 with L120M
VL: not shown
B18: IgG1-huCD3-H1L3 (antibody, V domains shown)
VH: B1 VH 1 with K13Q, R16G, I80S, S87N
VL: B5 VL 1
B19: bsIgG1-huCD3-H4L3×HER2-LFLEDA (bispecific antibody, V domains shown)
VH 1: B1 VH 1 with L120M
VL 1: B5 VL 1
VH 2: B1 VH 2
VL 2: B1 VL 2

The target in one experiment is T2, human CD3 (UniProt P07766 22-207). Put plainly: FACS binding, Jurkat cells; Fig 1B. Background: A flow cytometer gives signals particle by particle.
T2 sequence (P07766 22-207): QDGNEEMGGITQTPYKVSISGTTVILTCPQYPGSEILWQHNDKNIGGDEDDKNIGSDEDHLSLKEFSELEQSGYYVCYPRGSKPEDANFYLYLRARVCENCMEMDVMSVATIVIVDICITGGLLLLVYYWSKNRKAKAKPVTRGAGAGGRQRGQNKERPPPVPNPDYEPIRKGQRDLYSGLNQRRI
Consider B1, for which the midpoint of the response, the EC50, lay at 0.28 µg/mL.
As for B2, the EC50 was determined as 0.04 µg/mL.
Still for that read-out and setting: next, B3: 0.68 µg/mL; B4: 0.07 µg/mL.

In another experiment the target is T1, cynomolgus CD3. Put plainly: FACS binding, HSC-F cells.
Take B5: a half-maximal response (EC50) required 0.26 µg/mL.
For the molecule B1, the EC50 is 0.28 µg/mL.
The same measure, in the same setting: as for B6, the figure is 0.36 µg/mL.
Take B7: the EC50 was determined as 0.32 µg/mL.
Same read-out and setting: as for B8, the figure is 0.25 µg/mL; as for B4, 0.06 µg/mL.

In the next experiment the target is T1, cynomolgus CD3. Put plainly: FACS binding, HSC-F cells; Fig 2B.
As for B1, the EC50 is 3.54 µg/mL.
On the same count and under the same terms, as for B2, the figure is 0.3 µg/mL; as for B4, 0.47 µg/mL.

The next experiment addresses T1, cynomolgus CD3. Put plainly: FACS binding, HSC-F cells. This is another data set of the same source.
In turn, B9 showed an EC50 of 0.03 µg/mL.
On the same count and under the same terms, next, B10: 0.02 µg/mL.
On the same count and under the same terms, next, B11: 0.03 µg/mL; B2: 0.04 µg/mL; B12: 0.03 µg/mL.
Same read-out and setting: as for B4, the figure is 0.06 µg/mL; as for B13, 0.03 µg/mL.

A further experiment addresses T1, cynomolgus CD3. As to the kind of experiment: FACS binding, HSC-F cells; Fig 2A.
B14 yielded a 50% effective concentration (EC50) of 0.11 µg/mL.
Molecule B2 registered an EC50 of 0.19 µg/mL.
In turn, B15 showed an EC50 of 0.37 µg/mL.
On the same count and under the same terms, as for B16, the figure is 0.31 µg/mL; as for B17, 0.26 µg/mL.
Take B18: the EC50 was determined as 0.28 µg/mL.
The molecule B4 yielded an EC50 of 0.3 µg/mL.

The target of a further experiment is T2, human CD3. As to the kind of experiment: FACS binding, Jurkat cells.
B9 yielded an EC50 of 0.11 µg/mL.
Same read-out and setting: as for B10, the figure is 0.08 µg/mL; as for B11, 0.06 µg/mL.
Same read-out and setting: next, B2: 0.1 µg/mL; B4: 0.27 µg/mL.
In the case of B13, the midpoint of the response, the EC50, lay at 0.08 µg/mL.

A further experiment deals with T2, human CD3. Put plainly: FACS binding, Jurkat cells. The source holds these as a separate data set.
With B5, a half-maximal effect (EC50) was put at 0.74 µg/mL.
On the same count and under the same terms, as for B1, the figure is 0.64 µg/mL; as for B6, 0.62 µg/mL.
B19 had an EC50 of 0.59 µg/mL.
Same read-out and setting: next, B8: 0.58 µg/mL; B4: 0.18 µg/mL.

Another experiment addresses T2, human CD3. As to the kind of experiment: FACS binding, Jurkat cells; Fig 1A.
On to B14, for which the midpoint of the response, the EC50, lay at 0.02 µg/mL.
Same read-out and setting: next, B2: 0.04 µg/mL.
On the same count and under the same terms, next, B16: 0.08 µg/mL; B17: 0.05 µg/mL.
In turn, B18 came in with an EC50 of 0.06 µg/mL.
Regarding B4, the EC50 is 0.08 µg/mL.

In another experiment the target is T1, cynomolgus CD3. Put plainly: FACS binding, HSC-F cells; second row printed H4L1; graph legend indicates H4L3.
For B19, a half-maximal response (EC50) required 0.24 µg/mL.

As usually defined, the EC50 is the concentration that produces a half-maximal response.
